B1: OMT36 (clone 36) (antibody, V domains shown)
VH: QVQLVQSGAEVKKPGASVKVSCKASGYTFTNYDINWVRQATGQGLEWMGWMNPNSGNTDYVQKFQGRVAMTRITSISTAYLELSSLRSDDTAVYYCARGLHSGDYYSYGMDVWGQGTTVTVSS
VL: SYELTQPPSVSVSPGQTARITCSGDALPNQYAYWYQQKPGQAPVLVIYKDSERPSGIPERFSGSSSGTTVTLTISGVQAEDEADYYCQSADSSGTVVFGGGTKLSVL
B2: OMT24 (clone 24) (antibody, V domains shown)
VH: QVQLVQSGSELKKPGASVKVSCKASGYTFTTYVMNWVRQAPGQGLEWMGWINTNTGNPTYAQGFTGRFVFSVDTSVSTAYLQISSLKAEDTAVYYCARDRVLLWFGAGYYHYGMDVWGQGTTVTVSS
VL: SSELTQDPAVSVALGQTVRITCQGDSLRSYYTSWYQQKPGQAPVFVIYGKNNRPSGIPDRFSGSSSGNTASLTITGAQAEDEADYYCNSRDSSGNHVVFGGGTKLTVL
B3: OMT30 (clone 30) (antibody, V domains shown)
VH: QVQLVESGGGVVQPGRSLRLSCAASGFTFSSYGIHWVRQAPGKGLEWVAVIWYDGSNKYYADSVKGRFTISRDNSKNTLYLQMNSLRAEDTAVYYCARRGDSSSWHFDYWGQGTLVTVSS
VL: QSALTQPASVSGSPGQSITISCTGTSSDVGRHNLVSWYQQHPGKVPKVMIYEVTKRPAGVSNRFSGSKSGNTASLTISGLQAEDEADYYCCSYAGSSTYVFGTGTRVTVL
B4: OMT8 (clone 8) (antibody, V domains shown)
VH: QVQLQESGPGLVKPSQTLSLTCTVSGGSISSGGYYWSWIRQHPGKGLEWIGYIHYIGSTYQNPSLKSRVTMSVDTSKNQFSLRLTSVTAADTAVYYCARESGDTAMVFDYWGQGTQVTVSS
VL: QSALTQPPSASGSPGQSVTISCTGTSSDVGGYNYVSWYQQHPGKAPKVMIYEVSTRPSGVPDRFSGSKSGNTASLTVSGLQAEDEADYYCSSYAGNNNFVFGTGTKVTVL
B5: OMT35 (clone 35) (antibody, V domains shown)
VH: QVQLQQSGPGLVKPSQTLSLTCAISGDSVSSNSAAWNWIRQSPSSGLEWLGRTYYRSKWFDDYAVSVKGRITINPDTSKNQFSLQLKFVIPEDTAVYYCARRVHWGGPFDYWGQGTLVTVSS
VL: DIQLTQSPSFLSASVGDRVTITCRASQGISSYLAWYQQRPGKAPKVLISVASTLQSGVPSRFSGSGSGTDFTLTISSLQPEDFATYYCQQLTGYPFTFGPGTKVDIK

Target: transferrin (human, UniProt P02787)
Assay: ELISA

transferrin, sequence (P02787 20-698): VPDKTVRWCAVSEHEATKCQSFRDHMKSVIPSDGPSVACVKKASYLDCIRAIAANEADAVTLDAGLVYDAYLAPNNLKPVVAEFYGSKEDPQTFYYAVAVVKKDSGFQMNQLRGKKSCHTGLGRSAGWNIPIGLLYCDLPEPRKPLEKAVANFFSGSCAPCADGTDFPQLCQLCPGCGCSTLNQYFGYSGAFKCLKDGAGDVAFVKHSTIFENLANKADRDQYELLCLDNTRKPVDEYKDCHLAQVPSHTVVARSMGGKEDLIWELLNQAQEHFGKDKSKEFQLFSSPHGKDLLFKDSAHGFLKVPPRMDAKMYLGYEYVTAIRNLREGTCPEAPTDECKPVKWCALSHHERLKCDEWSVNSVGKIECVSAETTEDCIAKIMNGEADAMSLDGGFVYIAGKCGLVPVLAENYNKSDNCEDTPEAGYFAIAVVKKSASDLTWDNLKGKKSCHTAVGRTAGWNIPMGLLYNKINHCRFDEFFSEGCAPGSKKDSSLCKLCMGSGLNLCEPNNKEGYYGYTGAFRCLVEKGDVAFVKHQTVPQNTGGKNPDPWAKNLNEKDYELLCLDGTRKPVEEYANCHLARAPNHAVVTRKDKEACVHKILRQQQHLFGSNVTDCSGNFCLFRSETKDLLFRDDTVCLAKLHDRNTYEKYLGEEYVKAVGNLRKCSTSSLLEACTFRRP

Binder | binding result
B1 | no binding
B2 | no binding
B3 | no binding
B4 | no binding
B5 | no binding

Target: lactotransferrin (human, UniProt P02788)
Assay: ELISA

lactotransferrin, sequence (P02788 20-710): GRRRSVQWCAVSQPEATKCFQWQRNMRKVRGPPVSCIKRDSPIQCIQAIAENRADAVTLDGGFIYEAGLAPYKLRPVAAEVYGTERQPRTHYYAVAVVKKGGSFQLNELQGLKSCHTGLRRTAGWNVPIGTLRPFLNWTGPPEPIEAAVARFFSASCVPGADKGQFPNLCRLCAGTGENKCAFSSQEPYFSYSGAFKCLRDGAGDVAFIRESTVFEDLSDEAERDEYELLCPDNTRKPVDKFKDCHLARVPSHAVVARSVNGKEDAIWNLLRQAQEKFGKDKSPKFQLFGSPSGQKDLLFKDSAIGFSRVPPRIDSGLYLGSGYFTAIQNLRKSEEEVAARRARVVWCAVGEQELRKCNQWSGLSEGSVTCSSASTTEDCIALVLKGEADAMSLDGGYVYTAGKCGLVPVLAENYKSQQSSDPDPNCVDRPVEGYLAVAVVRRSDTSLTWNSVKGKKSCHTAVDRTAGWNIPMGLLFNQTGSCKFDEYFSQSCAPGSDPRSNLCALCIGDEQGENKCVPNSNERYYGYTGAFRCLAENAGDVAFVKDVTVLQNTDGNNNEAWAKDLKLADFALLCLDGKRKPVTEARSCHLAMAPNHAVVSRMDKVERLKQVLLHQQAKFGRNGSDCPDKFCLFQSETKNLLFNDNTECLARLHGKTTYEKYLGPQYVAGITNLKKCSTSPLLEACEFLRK

Binder | binding result
B1 | no binding
B2 | no binding
B3 | no binding
B4 | no binding
B5 | no binding

— US20260347495 (published 2026)
